Reference: patent US20030175822A1

What was measured:
[1] = target: mu3 opiate receptor (human) (UniProt P35372); assay: displacement of [3H]-dihydromorphine, membrane suspension of human granulocytes
[2] = target: mu3 opiate receptor (human) (UniProt P35372); assay: displacement of [3H]-dihydromorphine, membrane suspension of normal human lung
[3] = target: mu3 opiate receptor (human) (UniProt P35372); assay: displacement of [3H]-dihydromorphine, membrane suspension of human lung non-small cell carcinoma

mu3 opiate receptor (human), sequence (P35372 whole entry): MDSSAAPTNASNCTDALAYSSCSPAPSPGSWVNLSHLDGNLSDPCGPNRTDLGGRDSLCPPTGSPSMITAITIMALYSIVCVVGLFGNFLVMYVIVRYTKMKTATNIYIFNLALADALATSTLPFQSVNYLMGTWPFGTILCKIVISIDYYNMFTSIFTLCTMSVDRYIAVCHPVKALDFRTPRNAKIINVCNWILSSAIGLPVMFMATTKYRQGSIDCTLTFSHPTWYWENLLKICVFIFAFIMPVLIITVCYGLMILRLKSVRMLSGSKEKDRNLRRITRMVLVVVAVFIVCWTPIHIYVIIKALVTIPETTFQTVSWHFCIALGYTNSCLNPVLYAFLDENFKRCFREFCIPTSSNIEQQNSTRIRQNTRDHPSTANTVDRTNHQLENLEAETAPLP

IC50 [1] [nM] | IC50 [2] [nM] | IC50 [3] [nM] | Substance
> 1000 | > 1000 | > 1000 | (D-Pen^2, D-Pen^5)-enkephalin (peptide)
> 1000 | > 1000 | > 1000 | Deltorphin (peptide)
> 1000 | > 1000 | > 1000 | Dynorphin 1-17 (from UniProt P01213 207-223) (peptide)

Substance | IC50 [1] [nM] | IC50 [2] [nM] | IC50 [3] [nM]
(D-Ala^2, Leu^5)-enkephalin (from UniProt P01210 230-234) (peptide) | > 1000 | > 1000 | > 1000
